# Laboratory results from the supplement of paper PMC9170038.
# System: MS2 coat protein
# Assay: apparent KD of MS2 coat protein; designed switch direction (-1 OFF switch, 1 ON switch): -1; higher = weaker reporter binding
# Procedure, shortened: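 For each design, the apparent KD is the median over clusters of curves fitted to normalised cluster fluorescence. Clusters held RNA switches with common flanks, transcribed on Illumina chips by stalled E. coli RNA polymerase. These were titrated with SNAP-549-labelled MS2 coat protein, doubling from 0.7 or 1.5 nM to 3 µM, without input, with 200 uM small-molecule ligand, or with an oligonucleotide input.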
# [1] = Eterna round: R95, input ligand: FMN 200 uM
# [2] = Eterna round: R95, input ligand: microRNA oligo, concentration not stated
# [3] = Eterna round: R95, input ligand: none
# [4] = input ligand: microRNA oligo, concentration not stated
Sequence,apparent KD of MS2 coat protein [1],apparent KD of MS2 coat protein [2],apparent KD of MS2 coat protein [3],apparent KD of MS2 coat protein (input ligand: FMN 200 uM),apparent KD of MS2 coat protein [4],apparent KD of MS2 coat protein (input ligand: none)
AAAAAACAAGGAUAUACUAAAAAAAAAUGUGUUAAUUUUUCACAUGAGGAUCACCCAUGUAGAAGGUGUUAAAA [JR_Exclusion2_Sub006] (puzzle: Exclusion 2),54.7 nM,79 nM,93.6 nM,–,–,–
AAAAACAGAGGAUAUGCACGCCGACCCGGGCGGGAAGUCGGACAUGAGGAUCACCCAUGUAGAAGGCUGAAAAA [Exclss2-VI] (puzzle: Exclusion 2),13.3 nM,10.5 nM,11.5 nM,–,–,–
AAAAAGCGAGGAUAUGCGGGCGGGUGCGGCCAGCCGAUGUGACAUGAGGAUCACCCAUGUAGAAGGCGCAAAAA [Excls2-VII] (puzzle: Exclusion 2),–,12.3 nM,–,–,–,–
"AAAAAUUACAUGAGGAUCACCCAUGUAGAGUGGGAAGAGAGAUAGGAUAUGAUGUGAGAAUCAUAUCAGAAGGAUCGAGACUCA [AK ExNG3-2.1] (Eterna round: R96, puzzle: Exclusion NG 3)",–,–,–,129 nM,126 nM,119 nM
"AAAACAAACGAAGGAUAUGCGCGAAAAUGACUAGCAGAAGGUCGACACGGGCGGAUCCGACAUGAGGAUCACCCAUGUAAAACU [Tied] (Eterna round: R96, puzzle: Exclusion NG 1)",–,–,–,1200 nM,389 nM,490 nM
"AAAACACAUGAGGAUCACCCAUGUGAGGAUAUGCUAUGGAAAAUAAAAAUAAAACAUAGCAGAAGGCACAAAGG [Denovo 18] (Eterna round: R96, puzzle: Exclusion 1)",–,–,–,–,54 nM,–
AAAACCUCUGUCAGGAUAUCCAUGCGUCCAAAAGCGGAGAAGGGACAUGAGGAUCACCCAUGUUAGCAAAAUCA [Ceenxequ] (puzzle: Brourd's mod of Exclusion 4),119 nM,34.9 nM,38.5 nM,–,–,–
"AAAACGUGAGGAUAUCCAAUAUAUGACAUGAGGAUCACCCAUGUUUCCACUCGUACCUCCGGAGAAGGCACAUUUU [Ex5 #79] (Eterna round: R97, puzzle: Exclusion 5)",–,–,–,62.7 nM,–,67 nM
"AAAACUCACGUAGGAUAUCAUUCCUUAAGGUAGUGAGAAGGACGUGACUACAUGUCCUAAAACAUGAGGAUCACCCAUGUAGGC [Riis] (Eterna round: R96, puzzle: Exclusion NG 1)",–,–,–,–,24.2 nM,–
AAAAGGCUAGGAUAUACAUGAGGAUCACCCAUGUGAGGGCACGGCCGGCGCGGGCCCGGUAGAAGGAGUCAAAA [Exc;s3-IX] (puzzle: Exclusion 3),–,13.4 nM,–,–,–,–
AAAAGGUGAGGAUAUACAAUGAUCCUCAUAAUAACCCGAAGACAUGAGGAUCACCCAUGUAGAAGGCACAAAUA [Istive] (puzzle: Exclusion 2),33.4 nM,16.5 nM,19.8 nM,–,–,–
AAAAGUUUGGAGGAUAUCCAUCCAAACGGAUAAGGAGAAGGCCGGACAUGAGGAUCACCCAUGUGAUUAGGUUA [Isradiri] (puzzle: Exclusion 6),–,13.4 nM,–,–,–,–
"AAAAUAAAAGCAGGAUAUCGACCUCCCAAGUGGCGAGAAGGGCUAGACGGGCGGUCUAACAUGAGGAUCACCCAUGUCAACAAA [Soorante] (Eterna round: R96, puzzle: Exclusion NG 1)",–,–,–,93.4 nM,23.5 nM,34.7 nM
"AAAAUACAUGAGGAUCACCCAUGUGAGGAUAUGAGAGUCAACUCGAGAGAGUUGAUUCUCAGAAGGCACAUAAA [JR_Ex1_Sub066] (Eterna round: R97, puzzle: Exclusion 1)",–,–,–,228 nM,–,53.7 nM
"AAACAACGGACAGGAUAUCCGAAAAUAAAGCUAGGAGAAGGGUCGAAAACAUGAGGAUCACCCAUGUGCGUGGCGGGUUCUUAG [Zaerqu] (Eterna round: R96, puzzle: Exclusion NG 1)",–,–,–,25.6 nM,13.4 nM,21.2 nM
"AAACAAGCUCGGGUGAGGGAGACCACAGAAGGACCCAAAACAUGAGGAUCACCCAUGUCAAGAGUAGAGCUUGGCAU [high scoring solution 31] (Eterna round: R96, puzzle: Sensor v2, turn-off variant 2)",–,–,–,71 nM,57.4 nM,75.4 nM
"AAACCGCAAGGAUAUACUUGCGGUGGUGUUCGAAACUUUCUACUUGAGGAUCACCCAAGUAGAAGGUGCGGUAA [jl-ex2.4.71 ViennaUCT mod] (Eterna round: R97, puzzle: Exclusion 2)",–,–,–,13.2 nM,–,12.9 nM
"AAACCUGCCCAUGACCGCAAGCUUUUCGCUUGUCUUACCACAUGAGGAUCACCCAUGUGACAUGGGCUCCUUAUAAA [Usorle] (puzzle: Sensor v3, turn-off variant 2)",14 nM,11.8 nM,11.4 nM,–,–,–

Sequence,apparent KD of MS2 coat protein [1],apparent KD of MS2 coat protein [2],apparent KD of MS2 coat protein [3],apparent KD of MS2 coat protein (input ligand: FMN 200 uM),apparent KD of MS2 coat protein [4],apparent KD of MS2 coat protein (input ligand: none)
"AAACGGCAGGGAGGAUAUGCUUACCUGGGUCGUCUUCAGACAUGAGGAUCACCCAUGUAGUCGACGCAGAAGGCCCUCAAAGCC [JL ViennaUCT Ontiis mod 3] (Eterna round: R96, puzzle: Exclusion NG 2)",–,–,–,413 nM,38.7 nM,51.1 nM
"AAACGGGUGUCCUCGUUUUCAACAUGAGGAUCACCCAUGUUCGAGGAUAUCCAAUAAGCUCUUCAGGAGAAGGCGAACAUAAAA [Anenence] (Eterna round: R96, puzzle: Exclusion NG 3)",–,–,–,20.1 nM,13.3 nM,15.7 nM
AAACUGUGAGGAUAUGGUGAGUAGUGCCUGAGCGCUGCUCACCAGAAGGCACAUGAGGAUCACCCAUGUAUAAA [Mat - Exclusion 4 - Mod of JL - D6] (puzzle: Exclusion 4),–,24.2 nM,–,–,–,–
AAAGAACAUGAGGAUCACCCAUGUAAGGAUAUCCAAAAGAAGGAAAGAAAGAAAAGAAGGAGAAGGUACAAGAA [JR_Exclu1_Sub041] (puzzle: Exclusion 1),33.5 nM,60.7 nM,84.5 nM,–,–,–
"AAAGCCAAGCGAGGAUAUGCGAUAGUUGAUCUUCGUGAGGACAUGAGGAUCACCCAUGUGCUGCAGCAGAAGGCGCAGGUAAAG [Anramaqu] (Eterna round: R96, puzzle: Exclusion NG 2)",–,–,–,754 nM,140 nM,318 nM
AAAGCGUGAGGAUAUGAGGCGCCGGGCCGGUUGGUGCGGAUUCAGAAGGCACAUGAGGAUCACCCAUGUAGGAA [Excls4-III] (puzzle: Exclusion 4),–,22.9 nM,–,–,–,–
"AAAGGAUGCCUAGGAUAUUGACUAAGAAAGGAUUAAGAAGGAGGAAAUAUAUGAGGGAUCCACAUGAGGAUCACCCAUGUACAC [Xesousbege] (Eterna round: R96, puzzle: Exclusion NG 1)",–,–,–,769 nM,315 nM,607 nM
"AAAUAAAGCCUAGGAUAUCCGGACGAUAACCCAGGAGAAGGAGGAUGUCGAAGAAGACAUGAGGAUCACCCAUGUGCGUCCUCU [Ancegege] (Eterna round: R96, puzzle: Exclusion NG 1)",–,–,–,10.3 nM,10.6 nM,15.4 nM
"AAAUACAAAGGAUAUACAUGAGGAUCACCCAUGUAGGUCAAUGCGCGGGCGAUGCCACGUAGAAGGUUGAAUAC [EX3 C.12] (Eterna round: R97, puzzle: Exclusion 3)",–,–,–,27.5 nM,–,24.1 nM
"AAAUACAAGCAAAGAUCCUACAUGAGGAUCACCCAUGUGUUCGUCUUAUAAAGUACUAUCACGAAAGUGAUAGUACA [Sensor 3, v1 - 18] (puzzle: Sensor v3, turn-off variant 1)",309 nM,1100 nM,198 nM,–,–,–
"AAAUAGCAAGUGUGAUCCUACAUGAGGAUCACCCAUGUGUUCGUCUUAUUUGAAGACAACACAAAAGUGUUGUCUUA [Omei Mir OFFv1 B2] (Eterna round: R97, puzzle: Sensor, turn-off variant 1)",–,–,–,32.9 nM,–,24.6 nM
"AAAUAUAAGCAAAGAUCCUACAUGAGGAUCACCCAUGUGCUCGUCUUAUAAAGUACUAUCACGAAAGUGAUAGUACA [Sensor 3, v1 - 19] (puzzle: Sensor v3, turn-off variant 1)",117 nM,49 nM,215 nM,–,–,–
AAAUCCGCUGAGGAUAUCAUGACUGAGAGGUCAUGAGAAGGCGGUACAUGAGGAUCACCCAUGUCUAUGGGCAA [Ex-6 Malc#28] (puzzle: Exclusion 6),–,386 nM,–,–,–,–
"AAAUUAACUUAGGAUAUCGGCUGAAACAGCGUACGAGAAGGAAGUACAUGAGGAUCACCCAUGUGUCCCGUGCU [Teentibi] (Eterna round: R97, puzzle: Exclusion 6)",–,–,–,68.6 nM,–,38.1 nM
"AAAUUCAGAGGAUAUGCGCAUAGAUAAGACUUUUUUUUUUAACAUGAGGAUCACCCAUGUAGAAGGCUGUAACA [Ex2 #50] (Eterna round: R97, puzzle: Exclusion 2)",–,–,–,25.4 nM,–,21.2 nM
"AAAUUGUGAGGAUAUUCGUAGUACUCGGAGACGAGUAUUACGGAGAAGGCACAUGAGGAUCACCCAUGUUCCUU [Mat - Exclusion 4 - JL Mod - D20] (Eterna round: R97, puzzle: Exclusion 4)",–,–,–,88.3 nM,–,16.3 nM
"AACAGGACAGGAUAUACAUGAGGAUCACCCAUGUAGGAAACAAGCAGAGUACCAAAAAGUAGAAGGGUCAUGGA [Ruby 30] (Eterna round: R96, puzzle: Exclusion 3)",–,–,–,–,53.6 nM,–
